Assay results reported in paper PMC8943033, “A toolkit for recombinant production of seven human EGF family growth factors in active conformation” (Scientific Reports, 2022).

Columns and labels:
[1] = target: human heparin-binding epidermal growth factor, recombinant heparin-binding and EGF domains (human, UniProt Q99075 63-148); test: SEC; Superdex 75 10/300 GL, 25 mM Tris.HCl pH 8.0; 150 mM NaCl, flow rate 0.8 mL/min; oligomeric state read from the elution volume; settings: both partners purified
[2] = target: human amphiregulin, recombinant heparin-binding and EGF domains (human, UniProt P15514 101-198); test: as above; settings: both partners purified

B1: human heparin-binding epidermal growth factor, recombinant heparin-binding and EGF domains (ligand)
chain: DLQEADLDLLRVTLSSKPQALATPNKEEHGKRKKKGKGLGKKRDPCLRKYKDFCIHGECKYVKELRAPSCICHPGYHGERCHGLSL
modifications: three disulfides (C1-C3, C2-C4, C5-C6); SEC suggests a dimer; N-terminal pET32a linker remnant omitted / three disulfides (C1-C3, C2-C4, C5-C6); SEC suggests a dimer; N-terminal pET32a linker remnant
With B1 the “stoichiometry N” value [1] was 2.

B2: human amphiregulin, recombinant heparin-binding and EGF domains (ligand)
chain: SVRVEQVVKPPQNKTESENTSDKPKRKKKGGKNGKNRRNRKKKNPCNAEFQNFCIHGECKYIEHLEAVTCKCQQEYFGERCGEKSMKTHSMIDSSLSK
modifications: three disulfides (C1-C3, C2-C4, C5-C6); SEC suggests a dimer; N-terminal pET32a linker remnant omitted / three disulfides (C1-C3, C2-C4, C5-C6); SEC suggests a dimer; N-terminal pET32a linker remnant
B2 was tested, and the “stoichiometry N” value [2] was 2.
